Measured values from paper PMC5064212, “HigB of Pseudomonas aeruginosa Enhances Killing of Phagocytes by Up-Regulating the Type III Secretion System in Ciprofloxacin Induced Persister Cells”.

B1: 38-bp fragment with scrambled palindrome (EMSA-(M)) (dsDNA)
DNA 1: CTGTAGTGAAGTCTAGACTTAAGCATATGGGTTAATGA
DNA 2: TCATTAACCCATATGCTTAAGTCTAGACTTCACTACAG
B2: 38-bp higB-higA promoter fragment (dsDNA)
DNA 1: CTGTAGTGAAGTTAACGCTTAACGTTAAGGGTTAATGA
DNA 2: TCATTAACCCTTAACGTTAAGCGTTAACTTCACTACAG

Molecular target: HigA-His (Pseudomonas aeruginosa PA14, UniProt A0A0H2ZHN2 1-101)
Test: EMSA; 0, 4 or 20 nM HigA, 300 ng DNA, 5 mM Ca2+
Settings: protein: recombinant; tags: His (6xHis with Gly-Gly linker at C-terminus per higA cloning primer S4); chain copies: 2; label: none (ethidium bromide stain); blunt

Row | Binder | binding result
1 | B1 | no binding
2 | B2 | binds
